This data set concerns the target SSB single-stranded DNA-binding protein (Escherichia coli, UniProt P0AGE0 P0AGE0:2-178). Description: FP; complex of 5 nM Cy5-dT15 with 20 nM SSB, disrupted by compounds; 25 mM MOPS pH 7.5, 1.25 mM MgCl2. As to conditions: tags: Promega; chain copies: 4; label: 5'-Cy5.

Sequence of SSB single-stranded DNA-binding protein (P0AGE0 2-178, one chain of several): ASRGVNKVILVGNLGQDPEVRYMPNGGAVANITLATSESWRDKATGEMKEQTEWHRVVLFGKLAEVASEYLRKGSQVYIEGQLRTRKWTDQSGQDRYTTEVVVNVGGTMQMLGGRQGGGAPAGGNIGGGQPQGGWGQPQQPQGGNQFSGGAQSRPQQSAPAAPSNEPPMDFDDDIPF
Method: The Escherichia coli SSB assay was performed in a total volume of 20.2 μl in 384-well, flat-bottom, low volume, black microplates (Greiner Bio-One).
For IC₅₀ determination, assays were performed with 60 μl total volume in black flat bottomed 384-well microplates (Corning). First, 3.0 μl of DMSO or compound dissolved in DMSO was added, such that the final concentration of DMSO was 5% (v/v) in each assay.

Take TTTTTTTTTTTTTTT (ssDNA) [Cy5-dT15]: the binding result is reported as “binds”.

(Values after patent publication US20140227225, “HCV Helicase Inhibitors and Methods of Use Thereof” (UWM RESEARCH FOUNDATION, INC., published 2014).)
